Assay results as given in PMC13282566, “Regulation of Citron kinase by CDK1 and Aurora B regulates midbody formation and stability” (Journal of Cell Science, 2026).

Experiments:
KIF14 901-1648 = KIF14 901-1648 (UniProt Q15058); test: GST pull-down of MBP-tagged fragment, western blot; conditions: reference: fragment incubated without CDK1/cyclin B; sites S440
GST::KIF14(901-1648) = target: T1, GST::KIF14(901-1648) (UniProt Q15058 901-1648); test: pull-down; GST-tagged KIF14 or MKLP1 fragment on glutathione sepharose beads, purified MBP::CIT-K fragment in solution (with or without prior incubation with CDK1/cyclin B or AURKB); NET-N+ buffer (50 mM Tris-HCl pH 7.4, 150 mM NaCl, 5 mM EDTA, 0.2% NP-40), 60 min at 4°C; washes with 250 mM NaCl; western blot; conditions: both partners purified
T1 construct: Cloned into pDEST15; source: E. coli, purified (glutathione sepharose 4B), kept on beads; not shown: GST, N-terminal, kept
T1 sequence (looked up): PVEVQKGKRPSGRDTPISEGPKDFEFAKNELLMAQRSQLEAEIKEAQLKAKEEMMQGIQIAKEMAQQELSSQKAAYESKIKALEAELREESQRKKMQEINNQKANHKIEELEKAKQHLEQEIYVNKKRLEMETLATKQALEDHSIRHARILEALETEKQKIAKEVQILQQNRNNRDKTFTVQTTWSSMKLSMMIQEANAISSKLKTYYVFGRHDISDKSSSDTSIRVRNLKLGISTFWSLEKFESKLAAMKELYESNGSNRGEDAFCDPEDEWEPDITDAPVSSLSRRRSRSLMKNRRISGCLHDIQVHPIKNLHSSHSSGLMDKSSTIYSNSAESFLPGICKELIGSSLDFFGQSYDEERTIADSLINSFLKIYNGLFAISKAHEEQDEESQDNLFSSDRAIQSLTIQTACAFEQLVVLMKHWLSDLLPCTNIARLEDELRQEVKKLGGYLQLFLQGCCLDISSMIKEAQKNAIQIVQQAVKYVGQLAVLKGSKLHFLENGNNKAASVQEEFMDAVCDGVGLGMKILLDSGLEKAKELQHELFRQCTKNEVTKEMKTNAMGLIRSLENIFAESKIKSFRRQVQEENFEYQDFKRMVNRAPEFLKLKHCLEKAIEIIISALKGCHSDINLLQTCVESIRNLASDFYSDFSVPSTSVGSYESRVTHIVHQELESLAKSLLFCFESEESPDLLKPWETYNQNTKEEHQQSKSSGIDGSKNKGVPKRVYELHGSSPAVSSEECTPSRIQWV

Citron kinase (CIT-K) 420-585 (from UniProt O14578-4) fragment incubated with CDK1/cyclin B
binding against the reference (KIF14 901-1648): same

B1: MBP::CIT-K(420-585) (domain or fragment, human, UniProt O14578-4 420-585, looked up)
chain: SYSKALGILGRSESVVSGLDSPAKTSSMEKKLLIKSKELQDSQDKCHKMEQEMTRLHRRVSEVEAVLSQKEVELKASETQRSLLEQDLATYITECSSLKRSLEQARMEVSQEDDKALQLLHDIREQSRKLQEIKEQEYQAQVEEMRLMMNQLEEDLVSARRRSDLY
notes: contains S440; numbering of UniProt O14578-4; Cloned into pKM596; also called MBP::CC1 fragment containing S440; source: E. coli, purified (amylose resin, eluted with maltose)
binding result (GST::KIF14(901-1648)): binds

B2: MBP::CIT-K(420-585) phosphorylated by CDK1/cyclin B (pS440) (domain or fragment, human, UniProt O14578-4 420-585, looked up)
chain: B1 chain
modifications: phosphoserine at 440 (in vitro by CDK1/cyclin B, detected with the CIT-K pS440 antibody)
notes: numbering of UniProt O14578-4; source: E. coli, purified (amylose resin), then incubated with recombinant CDK1/cyclin B
binding result (GST::KIF14(901-1648)): binds
